Experiment [1] has as its system mice with diet induced obesity. The experiment is described as follows: Glucagon challenge test in mice with diet induced obesity. The format is in vivo, mouse. The conditions noted are these: HFD 20 weeks; 33 mg/kg i.p. twice a week for 3 weeks; 150 μg/kg glucagon after 4-hour fast; vs vehicle. The method, then:
Mice were fed high fat diet for 20 weeks prior to the experiment. Starting from the 20th week, mice were injected with vehicle or anti-aP2 mAb at a dose of 33 mg/kg injected i.p. twice a week for 3 weeks.

The target in another experiment is human glucagon receptor (Homo sapiens, UniProt P47871). The experiment is described as follows: cAMP-response element luciferase reporter in CHO-K1 cells expressing human GCGR-GFP. The format is cell-based. The conditions noted are these: CHO-K1 human GCGR cAMP reporter. The method, then: Bar graphs represent mean±standard deviation (s.d.), n=4-5 per group. *P<0.05, **P<0.01, ***P≤0.001, ****P≤0.0001, ns P>0.05. Multiple group comparisons were done using one-way ANOVA statistics with Tukey post-test correction. Graphs show data as mean±standard error of mean (s.e.m.), analyzed using two-way ANOVA.
Sequence of human glucagon receptor (P47871 26-477): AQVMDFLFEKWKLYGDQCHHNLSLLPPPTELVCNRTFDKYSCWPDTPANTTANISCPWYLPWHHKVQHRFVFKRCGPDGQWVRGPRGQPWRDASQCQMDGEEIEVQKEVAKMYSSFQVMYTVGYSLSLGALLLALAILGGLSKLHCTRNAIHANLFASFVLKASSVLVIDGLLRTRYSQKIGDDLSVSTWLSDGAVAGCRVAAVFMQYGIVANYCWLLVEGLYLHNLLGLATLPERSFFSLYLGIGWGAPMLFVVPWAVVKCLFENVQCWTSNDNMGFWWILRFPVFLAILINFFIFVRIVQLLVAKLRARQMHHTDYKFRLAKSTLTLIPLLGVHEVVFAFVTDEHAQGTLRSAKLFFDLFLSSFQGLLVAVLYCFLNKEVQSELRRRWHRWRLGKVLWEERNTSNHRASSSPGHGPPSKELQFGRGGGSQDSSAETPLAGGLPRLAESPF
During cloning hexahistadine and WELQ protease site was added for protein purification. Murine aP2 gene was cloned into pet21+ vector after the hexahistadine tag and TEV protease site for ease of purification.
Plasmids were transfected using Lipofectamine (Invitrogen) according to manufacturer's instructions. Transiently transfected cells were grown in appropriate selection antibiotics where applicable for stable cell line generation. Following three passages under selection media, single cell colonies were picked and expanded for experimentation after validation.
A general note: In a reporter assay the amount or activity of a reporter protein is the signal.

Another experiment addresses T1, GCGR-ecd (Homo sapiens, UniProt P47871).
T1 construct: GCGR extracellular domain was cloned into pFastBac shuttle vector; hexahistidine; WELQ protease site; made in house; host or cells: baculovirus expression system (pFastBac)
The experiment is described as follows: Biolayer interferometry: GCGR-ecd binding to biotin-glucagon with or without aP2. The conditions noted are these: BLITZ biolayer interferometry.

A further experiment has as its target biotin-glucagon (Homo sapiens, UniProt P01275). The experiment is described as follows: Bio-Layer Interferometry: aP2 binding to biotin-glucagon. The conditions noted are these: read-out: Kdapp aP2 / biotinylated glucagon; biolayer interferometry, 25° C., PBS. (BLI is a label-free optical method that tracks binding on a fibre tip over time.)
In another experiment the target is glucagon (Homo sapiens, UniProt P01275). The experiment in a line: Microscale thermophoresis, binding to glucagon. The conditions noted are these: read-out: Kd, binding to glucagon; MST. For orientation: Microscale thermophoresis detects binding through changes in fluorescence in a small temperature gradient.
Sequence of glucagon (P01275 53-81 limits assumed): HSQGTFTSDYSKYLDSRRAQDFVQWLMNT
The subject of a further experiment is aP2 knockout mice. The experiment in a line: Glucagon response of aP2 knockout mice given aP2, with or without CA33 preincubation. It is filed as in vivo, mouse. The conditions noted are these: CA33 preincubated with aP2. The text has this:
Mouse and rabbit-mouse hybrid monoclonal antibodies raised against the human and mouse aP2 peptides were produced and screened. […] The systemic improvement in glucose metabolism was further verified using a glucose tolerance test (GTT).

Experiment [2] concerns G6Pc and Pck1 expression in primary hepatocytes. The experiment is described as follows: Gluconeogenic gene expression (G6Pc, Pck1) in primary hepatocytes. The conditions noted are these: glucagon 100 nM plus recombinant aP2, vs glucagon alone. It is filed as cell-based, mouse.
A further experiment relates to primary hepatocytes. The experiment is described as follows: De-novo glucose production in primary hepatocytes. As to conditions: 4 hours stimulation, aP2 with glucagon. The format is cell-based, mouse. The text has this:
(§1) Bar graphs represent mean±standard deviation (s.d.), n=4-5 per group. *P≤0.05, **P≤0.01, ***P≤0.001, ****P≤0.0001, ns P>0.05. Multiple group comparisons were done using one-way ANOVA statistics with Tukey post-test correction.

Experiment [3] relates to HepG2-C3A human hepatoma cell line. The experiment in a line: Glycogenolysis (14C-glucose release) in HepG2-C3A cells. It is filed as cell-based. The conditions noted are these: 24 hours stimulation, aP2 with glucagon.
Excerpt: as §1

Experiment [4] relates to aP2 deficient mice. The experiment in a line: Hyper-insulinemic-pancreatic clamp in aP2 deficient mice. It is filed as in vivo, mouse. The conditions noted are these: insulin 3 mU/kg/min, vs vehicle.
Excerpt: Multiple group comparisons under clamp conditions were done using one-way ANOVA statistics with Tukey post-test correction. Basal and clamp conditions between groups were compared using repeated measures two-way ANOVA with Sidak correction. Graphs show data as mean s.e.m.
Experiment [5] has as its system aP2 deficient mice. The experiment is described as follows: Glucagon injection test (glycaemia) in aP2 deficient mice. As to conditions: 4-hour food withdrawal.
Excerpt: Graphs show data as mean s.e.m. Experiments were repeated at least three times with similar results.
One-way ordinary ANOVA, with Tukey correction was used for multiple group comparisons. Experiments were repeated at least three times with similar results.

T1 sequence (P47871 26-136 limits assumed): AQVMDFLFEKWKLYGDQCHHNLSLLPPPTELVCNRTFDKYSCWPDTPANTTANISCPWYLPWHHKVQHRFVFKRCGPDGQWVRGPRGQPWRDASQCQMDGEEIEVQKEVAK

B1: anti-aP2 mAb: anti-aP2 monoclonal antibody of Example 4, identity not stated (probably CA33) (antibody, V domains shown)
VH: QSVEESGGRLVTPGTPLTLTCTVSGFSLSTYYMSWVRQAPGKGLEWIGIIYPSGSTYCASWAKGRFTISKASTTVDLKITSPTTEDTATYFCARPDNDGTSGYLSGFGLWGQGTLVTVSS
VL: DVVMTQTPASVSEPVGGTVTIKCQASEDISRYLVWYQQKPGQPPKRLIYKASTLASGVPSRFKGSGSGTDFTLTISDLECDDAATYYCQCTYGTYAGSFFYSFGGGTEVVVE
Regarding B1, the “Response to glucagon injection (glucose levels)” value in experiment [1] is “significantly lower response”.

B2: aP2: adipocyte lipid binding protein (aP2), also known as fatty-acid binding protein 4 (FABP4), recombinant (protein)
chain: MCDAFVGTWKLVSSENFDDYMKEVGVGFATRKVAGMAKPNMIISVNGDLVTIRSESTFKNTEISFKLGVEFDEITADDRKVKSIITLDGGALVQVQKWDGKSTTIKRKRDGDKLVVECVMKGVTSTRVYERA
For B2, in the experiment with human glucagon receptor, the “Increase of glucagon potency by aP2 addition” value is “more than one order of magnitude”. Moreover, the “Change of dissociation constant of glucagon to GCGR-ecd on addition of aP2” value with GCGR-ecd is listed as “an order of magnitude decrease”. Besides, the results for the Kd in the experiment with biotin-glucagon and with glucagon were 2340 nM and about 214 nM, respectively. In addition, the “Glucagon responsiveness of aP2 knockout mice” value in the experiment on aP2 knockout mice is on record as “rescues glucagon unresponsiveness”. In addition, in experiment [2], the “Expression of gluconeogenic genes” value was “further increased”. The Hepatic glucose production entry in the experiment with primary hepatocytes is reported as “increased”. Further, in experiment [3], the Glycogenolysis result is “increased”. In addition, the “Hepatic glucose production / counterregulatory response to insulin” value in the experiment with aP2 deficient mice [4] was “not seen”. In addition, the “Glycaemia response (glucagon responsiveness)” value in the experiment with aP2 deficient mice [5] was “little to no-response”.

The values above are taken from patent US20250346646A1, “COMPOUNDS USEFUL TO TREAT METABOLIC DISORDERS” (President and Fellows of Harvard College, priority 2016, published 2025).
